Among the data in patent publication US20240317890A1 (INSTITUT CURIE, published 2024) are Kd, koff and kon values, retold here.

The target in this assay is T1, recombinant human Her2/ErbB2 Fc Tag (ACROBiosystems) (human, UniProt P04626 23-652).
T1 construct: Bought product; Captured on protein A biosensors; also called HER2-Fc; not shown: Fc tag of the bought product
Description: BLI (Octet-HTX), HER2-Fc captured on protein A biosensors, sdAb in solution, 37 C. The source says:
Affinity measurements: Affinity measurements can be done by surface plasmon resonance (for example as detailed in Moutel, Sandrine et al. “NaLi-H1: A universal synthetic library of humanized nanobodies providing highly functional antibodies and intrabodies.” eLife vol. 5 e16228. 19 Jul. 2016, doi:10.7554/eLife.16228). More particularly, binding affinities of selected hs2dAb fused to a 10HIS tag measured by surface plasmon resonance single cycle kinetics method. Dissociation equilibrium constant KD corresponds to the ratio between off-rate and on-rate kinetic constant Koff/Kₒₙ. […] Affinity measurements were also performed on an Octet-HTX (Sartorius) by bio-Layer Interferometry (BLI) which is an optical technique for measuring macromolecular interactions by analyzing interference patterns of white light reflected from the surface of a biosensor tip. BLI experiments were used to determine the kinetics and affinity of molecular interactions. Biosensors with proteinA were used to capture recombinant human Her2/ErbB2 Fc Tag (ACROBiosystems), the sensors were then dipped in wells containing purified sdAb to measure kinetics at 37° C.
Affinity measurement were also performed using BLI as above detailed.

B1: anti-HER2 humanized synthetic single domain antibody sdAb no 6 (VHH)
VHH: EVQLQASGGGFVQPGGSLRLSCAASGRGYTGTTMGWFRQAPGKEREFVSAISWTSNQTSYYADSVKGRFTISRDNSKNTVYLQMNSLRAEDTATYYCAMMPLPRWKGYWGQGTQVTVSS
notes: Purified sdAb in BLI; Any tag is not described for this assay; also called sdAb 6
As for B1, the Kd came out at 8.4 nM, the dissociation rate constant (koff) came to 0.0066 s⁻¹ and the kon came to 780000 M⁻¹ s⁻¹.

B2: anti-HER2 humanized synthetic single domain antibody sdAb no 4 (VHH)
VHH: EVQLQASGGGFVQPGGSLRLSCAASGYTSRESGMGWFRQAPGKEREFVSAISRDQDGISYYADSVKGRFTISRDNSKNTVYLQMNSLRAEDTATYYCAMIPLTRNAKYWGQGTQVTVSS
notes: Purified sdAb in BLI; Any tag is not described for this assay; also called sdAb 4
Turning to B2, the Kd amounted to 5.2 nM, the dissociation rate constant (koff) came to 0.0076 s⁻¹ and the kon worked out at 1.47e+06 M⁻¹ s⁻¹.

B3: anti-HER2 humanized synthetic single domain antibody sdAb no 1 (VHH)
VHH: EVQLQASGGGFVQPGGSLRLSCAASGATSNISNMGWFRQAPGKEREFVSAISRAESRPLYYADSVKGRFTISRDNSKNTVYLQMNSLRAEDTATYYCAYMPLVRHKAYWGQGTQVTVSS
notes: Purified sdAb in BLI; also called sdAb 1; hsdAb1
For B3, the dissociation constant Kd was found to be 4.6 nM, the koff came to 0.004 s⁻¹ and the kon was 880000 M⁻¹ s⁻¹.

B4: anti-HER2 humanized synthetic single domain antibody sdAb no 2 (VHH)
VHH: EVQLQASGGGFVQPGGSLRLSCAASGDSYNESSMGWFRQAPGKEREFVSAISARGNHPLYYADSVKGRFTISRDNSKNTVYLQMNSLRAEDTATYYCASMPMPKWKKYWGQGTQVTVSS
notes: Purified sdAb in BLI; also called sdAb 2; hsdAb 2
As to B4, the dissociation constant (Kd) was determined as 4.1 nM, the off-rate (koff) came to 0.0049 s⁻¹ and the on-rate constant (kon) was 1.2e+06 M⁻¹ s⁻¹.

B5: anti-HER2 humanized synthetic single domain antibody sdAb no 5 (VHH)
VHH: EVQLQASGGGFVQPGGSLRLSCAASGYTFSEETMGWFRQAPGKEREFVSAISWNHTFFEYYADSVKGRFTISRDNSKNTVYLQMNSLRAEDTATYYCAVTPLPPNKAYWGQGTQVTVSS
notes: Purified sdAb in BLI; also called sdAb 5; hsdAb 5
With B5, the dissociation constant Kd worked out at 33.3 nM, the koff turned out to be 0.0015 s⁻¹ and the kon was found to be 44000 M⁻¹ s⁻¹.
